Experimental data taken from IntAct's records for PubMed 21212461.

B1: NAD-dependent protein deacetylase sirtuin-3, mitochondrial (Homo sapiens), Q9NTG7 (parent)
chain: MAFWGWRAAAALRLWGRVVERVEAGGGVGPFQACGCRLVLGGRDDVSAGLRGSHGARGEPLDPARPLQRPPRPEVPRAFRRQPRAAAPSFFFSSIKGGRRSISFSVGASSVVGSGGSSDKGKLSLQDVAELIRARACQRVVVMVGAGISTPSGIPDFRSPGSGLYSNLQQYDLPYPEAIFELPFFFHNPKPFFTLAKELYPGNYKPNVTHYFLRLLHDKGLLLRLYTQNIDGLERVSGIPASKLVEAHGTFASATCTVCQRPFPGEDIRADVMADRVPRCPVCTGVVKPDIVFFGEPLPQRFLLHVVDFPMADLLLILGTSLEVEPFASLTEAVRSSVPRLLINRDLVGPLAWHPRSRDVAQLGDVVHGVESLVELLGWTEEMRDLVQRETGKLDGPDK

Variants of: B1
Settings: with ppif_mouse Ppif

Variant	effect of a mutation on the interaction
H248Y	disrupting interaction
